Laboratory results reported in US20150258217A1, “Methods of Synthesizing and Using Peg-Like Fluorochromes” (THE GENERAL HOSPITAL CORPORATION, priority 2012, published 2015).
Blank lines part the entries; values can stand above or below the compound they belong to.

Key:
[1] = PN and peptide size (volume, diameter) by FPLC gel filtration (Superdex 200, globular protein standards); format: physicochemical; details: for Molecular Volume: Table 3C, proposed Example 4 compounds; for diameter: FPLC gel filtration; for Volume FPLC / Volume FPLC (diameter): Table 5; for Volume FPLC: globular protein equivalent molecular weight; for Molecular Volume FPLC: Table 3B, dipeptides; for Volume FPLC (diameter): converted from globular protein equivalent MW
Experimental: DOTA-Lys-Cys(IR783)-NH2 is then dissolved in DMSO, with 2 equivalents of an NHS ester of PEG and 6 equivalents of DIPEA. The reaction was at room temperature for 5 days. Product was purified by reverse phase HPLC separation. Product molecular weight was by matrix-assisted laser desorption ionization time-of-flight mass spectrometry (MALDI-TOF MS), with product molecular volume by size exclusion FPLC using globular protein standards (GE Healthcare life science AKTApurifier 10).
The mass spec of low molecular weights (MW) were obtained by MS-ESI Micromass (Waters) and high MW molecules were determined through MALDI-TOF analyses at the Tufts University Core Facility. RP-HPLC (Varian ProStar detector and delivery modules) employed an eluant A (0.1% TFA/water) and eluant B (0.1% TFA and 9.9% water in acetonitrile). Probe size (volume) was determined by FPLC using an ÄKTA Purifier 10 and Superdex™ 200 10/300GL column (GE Healthcare) with a running buffer of 0.05 M sodium phosphate, 0.15 M NaCl (0.1% Tween, pH 7.2) and flow rate of 0.8 ml/min. Standards (GE Healthcare) were Ferritin, Ribonuclease A, Carbonic Anhydrase, and Conalbumin and Blue Dextran 2000. To obtain probe volumes, Mr (apparent molecular weight based on size exclusion retention) was plotted versus Kav. Kav=(Ve−Vo)/(Vt−Vo), Vt=total volume, Ve=elution volume, Vo=void volume.
The column was calibrated with globular protein standards, and globular protein equivalent molecular weights (in kDa) were obtained (Table 5, column 5). These were converted to PN diameters in nm using the relationship: Radius in nm=[…] where M is the molecular weight of a globular protein expressed in daltons (see Erickson, “Size and Shape of Protein Molecules at the Nanometer Level Determined by Sedimentation, Gel Filtration, and Electron Microscopy”, Biological Procedures Online 2009, 11(1): 32-50). PN's diameters ranged from 3.0 to 11.8 nm (see FIG. 23a). Using PEG's of 5 kDa and 30 kDa, selected for their low polydispersity, PN's were synthesized using IR-783, Cy3 and Fluorescein (see FIG. 22a) and their sizes determined (see FIGS. 23a, 23b, 23c). With the 5 kDa PEG and these three fluorochromes (see the magenta chromatograms in FIGS. 22a, 23b and 23c) PN diameters were 4.3 nm. With the 30 kDa PEG and these three fluorochromes (blue chromatograms, 23a, 23b, 23c), PN diameters were now 10.0 nm. For reference, the diameter of a 67 kDa albumin determined by this method was 5.4 nm.

[2] = Quantum yield determination; format: physicochemical; details: for Quant. Yield: Table 5, in PBS
Experimental: Quantum yields were determined as described in Demas et al., “Measurement of photoluminescence quantum yields. Review”, Journal of Physical Chemistry 75, 991-1024 (1971), and Shao et al., “Facile Synthesis of Monofunctional Pentamethine Carbocyanine Fluorophores. Dyes and pigments: an international journal 90, 119-122 (2011). For IR-783 a reference quantum yield of 0.043 was used (see Li et al., “Synthesis and characterization of glucosamine-bound near-infrared probes for optical imaging”, Organic letters 8, 3623-3626, 2006); for fluorescein a reference quantum yield was […] (see Sjoback et al., “Absorption and florescence properties of fluorescein”, Spectrohimica Acta Part A 51, L7-L21, 1995). For Cy3 a reference quantum yield of 0.31 was used (Luminprobe Inc). For PN(783)'s, excitation was at 730 nm and emission spectra were recorded from 765 nm to 870 nm in PBS and maximum emission used. For PN(545)'s, excitation was at 515 nm and emission spectra were recorded from 538 nm to 700 nm in PBS and maximum emission used. For PN(497)'s, excitation was at 450 nm and emission spectra were recorded from 475 nm to 620 nm in PBS and maximum emission used. Absorbance of each probe was adjusted less than 0.1. Measurements were made in triplicate and are expressed as mean±SD.

[3] = system: HT-29, a human colon carcinoma cell line; experiment: PN and peptide binding to cells (non-specific binding, FACS); format: cell-based; details: HT-29 cells; for Cell NSB (percent of cells with fluorescence higher than unstained cell): 30 min at 37° C., FACS
Experimental: HT-29, a human colon carcinoma cell line, was from the American Tissue Culture Collection and maintained according to their instructions. Cells were seeded on 24-well plates at 5×10^5 cells/well in culture medium (RPMI 1640 with 10% FBS) the day before the assay. The day of assay, medium was removed, wells rinsed twice with DPBS (+Ca, +Mg), and 100 μl of 2% FBS/DPBS (+Ca, +Mg) added. 100 μL of Nanoprobes (2 μM) in DPBS (+Ca, +Mg) was added to cells and incubated for 30 min at 37° C. (Probe concentrations were determined spectrophotometrically (783 nm, extinction coefficient of 314 471 cm^−1 M^−1 for IR-783; 497 nm, extinction coefficient of 68 000 cm^−1 M^−1 for Fluorescein; 545 nm, extinction coefficient of 150 000 cm^−1 M^−1 for Cy3). Cells were detached by Trypsin/EDTA and assayed for fluorescence by FACS (BD 7 laser LSR2 for nanoprobes with IR-783; BD 3 laser LSR2 for nanoprobes with Fluorescein or Cy3).

[4] = Probe volume determination by FPLC (Superdex 75, globular protein standards); format: physicochemical
Experimental: Size (volume) was determined by FPLC using an ÄKTA Purifier 10 and Superdex™ 75 10/300 GL column (GE Healthcare Lifesciences) with a running buffer of 0.05 M sodium phosphate, 0.15 M NaCl (0.1% Tween, pH 7.2) and flow rate of 0.5 ml/min. The protein standards (Gel Filtration Calibration Kit LMW, code no. 28-4038-41, GE Healthcare) (0.3 mg/ml, mixture of Aprotinin, Ribonuclease A, Ovalbumin, and Conalbumin) and Blue Dextran 2000 were used. To obtain volumes, Mr (apparent molecular weight based on size exclusion retention) was plotted versus Kav. Kav=(Ve−Vo)/[…], Vt=total volume, Ve=elution volume, Vo=void volume.

[5] = system: GFP expressing BT-20 breast carcinoma xenograft; experiment: Tumor surface fluorescence after peritumoral (DMR) or IV injection; format: in vivo, mouse
Experimental: Day 1, BT-20 cells were planted into 24-well plate at 750,000 cells/well in culture medium (EMEM with 10% FBS). Day 2, the old culture medium was replaced with new culture medium containing lenti-virus (1×10^8 particles/mL) and protamine sulphate (American Pharmaceutical Partners, Los Angelus, Calif.; 10 mg/mL; 1:500 of total volume of medium). Day 3, after 16 hours of transfection, medium was changed to the culture medium (EMEM with 10% FBS). 8 hours later, green cells could be seen via fluorescence microscope.
All animal experiments were approved by the Institutional Review Committee of Massachusetts General Hospital. Female nude mice (25-30 g; 6-8 weeks old; nu/nu; Cox 7, Massachusetts General Hospital, Boston, Mass.) were anesthetized with isoflurane/O2. Tumor cell implantation was performed both sides around the shoulder. 200 μl of cell suspension containing 10^6 cells in Matrigel (BD) was injected subcutaneously. Tumor cells were inoculated for 7 to 10 days.
The diffusion and molecular retention required of the DMR technique with a tumor bearing model were investigated. We peritumorally injected the RGD probe into an animal bearing two GFP expressing BT-20 breast carcinomas and monitored tumor GFP fluorescence and probe fluorescence as a function of time after injection. The non-integrin binding RAD probe was injected into a second animal also bearing two tumors. Overlaying purple probe fluorescence over green GFP yields white. […] Tumor surface fluorescence from both probes was quantified by the use of solution standards.
In FIG. 8a), two animals bearing two tumors were PT injected with the RGD probe or RAD probe as indicated and surface fluorescence images were obtained. […] In FIG. 8b), quantitation of tumor surface fluorescence after injections of the RGD or RAD probes as above. Surface fluorescence was quantified through the use of standard solutions.
To compare the DMR and intravenous (IV) methods, surface fluorescence images of tumor GFP and RGD probe fluorescence were obtained with skin removed, and overlays from the two signals obtained. With both DMR and IV administration, probe fluorescence extended beyond tumor GFP margins to a stromal area beyond the tumor. However, tumor fluorescence was far higher with DMR than IV injection, even though dose was far lower (50 pmoles/mouse by DMR versus 2000 pmoles/mouse by IV).
In FIG. 9a), skin covering GFP-BT-20 tumor was removed. Shown are visible GFP fluorescence, probe (CyAL5.5) fluorescence, and the overlay of GFP and probe fluorescence plus an X-ray image. Green GFP plus purple CyAL5.5 fluorescence yielded a white overlaid image. In FIG. 9b), with DMR or IV, probe fluorescence included a stromal zone of integrin binding surrounding the tumor was seen. […]

[6] = Table 3A, CyAL5.5 tetrapeptides
[7] = Table 3C, proposed Example 4 compounds

Compound: 5 kDa PEG-Cys(IR-783)-OH
- Molecular Volume [1]: >20 kDa

- Quantum Yield ([2]; Table 3B, IR-783 dipeptides): 0.041
Compound: CC1(C)C(/C=C/C=C/C=C/C=C2/N(CCCCS(=O)(=O)O)c3ccc4ccccc4c3C2(C)C)=[N+](CCCCS(=O)(=O)O)c2ccc3ccccc3c21 [ICG, Indocyanine green, reference compound]

Compound: (DOTA)Lys(PEG5K)-Cys(Cy3) [PN(545)4.3]
- Cell NSB (percent of cells with fluorescence higher than unstained cell) [3]: 31%
- diameter [1]: 4.3 nm
- Volume FPLC [1]: 35 kDa
- Quant. Yield [2]: 0.59

Compound: (DOTA)Lys(PEG5K)-Cys(FI) [PN(497)4.3]
- Cell NSB (percent of cells with fluorescence higher than unstained cell) [3]: 0.2%
- diameter [1]: 4.3 nm
- Volume FPLC [1]: 35 kDa
- Quant. Yield [2]: 0.59

Compound: (DOTA)Lys(PEG30K)-Cys(FI) [PN(497)10.0]
- Cell NSB (percent of cells with fluorescence higher than unstained cell) [3]: 0.1%
- Volume FPLC [1]: 435 kDa
- Quant. Yield [2]: 0.60

Compound: (DOTA)Lys(PEG40K)-Cys(IR-783) [PN(783)11.7]
- Molecular Volume FPLC [1]: 690 kDa
- Volume FPLC (diameter) [1]: 11.7 nm
- Volume FPLC [1]: 690 kDa
- Quantum Yield ([2]; Table 3B, IR-783 dipeptides): 0.18
- Quant. Yield [2]: 0.16

Compound: (DOTA)Lys-Cys(Cy3)
- binding to cells (FACS, FIG. 30) [3]: binds to cells
- Cell NSB (percent of cells with fluorescence higher than unstained cell) [3]: 98%
- Volume FPLC [1]: 0.6 kDa
- Quant. Yield [2]: 0.32

Compound: (DOTA)Lys-Cys(Fluorescein) [(DOTA)Lys-Cys(FI)]
- binding to cells (FACS, FIG. 30) [3]: binds cells very weakly
- Cell NSB (percent of cells with fluorescence higher than unstained cell) [3]: 0.4%
- Quant. Yield [2]: 0.50

Compound: (DOTA)Lys-Cys(IR-783)
- binding to cells (FACS, FIG. 30) [3]: binds cells
- Cell NSB (percent of cells with fluorescence higher than unstained cell) [3]: 95%
- diameter [1]: 1.1 nm
- Molecular Volume FPLC [1]: 0.600 kDa
- Volume FPLC (diameter) [1]: 1.10 nm
- Volume FPLC [1]: 0.600 kDa
- Quantum Yield ([2]; Table 3B, IR-783 dipeptides): 0.053
- Quant. Yield [2]: 0.053

Compound: DOTA-Lys(CyAL5.5)-Lys(5 kDa PEG)- βAla -Lys(N3)-NH2 [Compound 5b]
- Quantum Yield [2, 6]: 0.17
- Molecular Volume ([4]; Table 3A, tetrapeptides): <1 kDa

Compound: DOTA-Lys(CyAL5.5)-Lys(5 kDa PEG)- βAla -Lys(sPEG-RGD) [Compound 7a]
- tumor retention of probe fluorescence after peritumoral injection ([5]; BT-20 tumors, 24 hours post injection): retained by the tumor
- Tumor fluorescence ([5]; DMR, 50 pmoles/mouse): 15.0 au
- Tumor fluorescence ([5]; IV, 2000 pmoles/mouse): 1.5 au
- Quantum Yield ([2]; Table 4, DMR probes): 0.20
- Equiv. Vol. ([4]; FPLC, globular protein equivalent volume): 25 kDa
- Molecular Volume ([4]; Table 4, DMR probes): 20-30 kDa

Compound: DOTA-Lys(CyAL5.5)-Lys(NH2)-β-Ala-Lys(N3) [Compound 5a]
- Quantum Yield [2, 6]: 0.061
- Molecular Volume ([4]; Table 3A, tetrapeptides): <1 kDa

Compound: DOTA-Lys(CyAL5.5)-Lys(NH2)-β-Ala-Lys(N3-DBCO-PEG4-cRGD)-NH2 [Compound 6a]
- Quantum Yield [2, 6]: 0.082
- Molecular Volume ([4]; Table 3A, tetrapeptides): <1 kDa

Compound: DOTA-Lys(CyAL5.5)-Lys- βala -Lys(sPEG-RAD) [Compound 6b]
- Quantum Yield [2, 6]: 0.081
- Molecular Volume ([4]; Table 3A, tetrapeptides): <1 kDa

Compound: DOTA-Lys(PEG 40 kDa)-Cys(Fl)-NH2
- Molecular Volume [1]: 690 kDa
- Quantum Yield [2, 7]: 0.60

Compound: NH2-Cys(IR-783)-OH
- Molecular Volume [1]: <2 kDa
- Quantum Yield [2, 7]: <0.10
